The values that follow come from the supplement of paper PMC12764529.

± gives the half width of the 95% confidence interval.

Data set [1] is described as follows: folding stability dG unfold from chymotrypsin proteolysis; higher = more stable. On the procedure:
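Folding stability of de novo designed mini-proteins (<80 aa, no Cys; designed by TrROS, TrMRF, ProteinMPNN and the joint model) was measured by cDNA display proteolysis with trypsin and chymotrypsin. Each protease was used at 11 concentrations in a threefold dilution series plus a no-protease condition. K50 was inferred by Bayesian fitting of sequencing counts, and dG unfold was derived against a sequence-predicted unfolded-state K50 (Tsuboyama et al. method). Sequences shown include variable-length N-terminal GS-type padding (SAGGSAGG...) inside a display construct carrying a PA tag. Rows were kept only if the AF2 dimer inter-PAE was >15, to exclude likely homo-oligomers.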

Data set [2] in a line: folding stability dG unfold (combined trypsin and chymotrypsin); higher = more stable. The method in brief:
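Unfolding free energy was derived, per protease or combined, by relating Bayesian-fitted K50 values from sequencing counts to a sequence-predicted unfolded-state K50 and a shared folded-state K50. The underlying digests exposed cysteine-free mini-proteins under 80 residues, in a PA-tagged cDNA display construct, to trypsin and chymotrypsin at 11 threefold-diluted concentrations and to a no-protease condition. A filter kept only designs with AlphaFold2 dimer inter-PAE above 15.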

Turning to “SAGGSAGGSAGGMTLTVKDPASDEWTTVDLSPEQLPEVRAAVPEGPVTFELEASDSVIELSAGGSAGGSAGG [r7_188_JUSTAS]”, the “folding stability dG unfold” value in data set [1] was determined as 3.93 ± 0.255 kJ/mol; in data set [2], 1.71 ± 0.247 kJ/mol.
The like results for “SAGGSAGGSAGGMVKTTTQVSIDPNSDYRYTTTTTTVVDANGKPLATQTTLTVTKLAGTSSAGGSAGGSAGG [r7_616_JUSTAS]” were, in that order, -0.522 ± 1.42 kJ/mol and -2.16 ± 1.76 kJ/mol.
As for “SAGGSAGGSAGGMYSVTLTPVSSPDGELRLRAVYPELGLVRDFDPATGRPVRVVPAALLSAGGSAGGSAGGS [r10_589_JUSTAS]”, the “folding stability dG unfold” value was 1.72 ± 0.92 kJ/mol in data set [1] and -1.77 ± 1.09 kJ/mol in data set [2].
On the same counts, the results for “SAGGSAGGSAGGNDPNGQEKEIPIDPGQRADEIAEEFKDEFNPDHVEIEASEEGYAEVRVSAGGSAGGSAGG [r7_273_TrROS]” are 3.71 ± 0.184 kJ/mol and 1.46 ± 0.331 kJ/mol.
On the same counts, the results for “SAGGSAGGSAGGNVPIPFLPEGFDVEVKKIEVPTPGKVKLVLVPKNSDEEFELEFSPEELSAGGSAGGSAGG [r7_342_TrMRF]” are -2.65 ± 0.837 kJ/mol and under -4.18 kJ/mol.
In the case of “SAGGSAGGSAGGPELPEDVPVVEVVHLDLPFSPDEPEVVEEAEAKAAALEEGGALAEIRRSAGGSAGGSAGG [r11_519_JUSTAS]”, the figures for the “folding stability dG unfold” value in data set [1] and in data set [2] were 3.05 ± 0.251 kJ/mol and 0.152 ± 0.406 kJ/mol, respectively.
Turning to “SAGGSAGGSAGGPIKIKHNDGVEITIPADNVRSVDTNPGPGYIKITFPGNGQEFQIPIDSAGGSAGGSAGGS [r10_200_TrROS]”, the “folding stability dG unfold” value is 0.0409 ± 0.13 kJ/mol in data set [1] and -1.28 ± 0.502 kJ/mol in data set [2].
On the same counts, the results for “SAGGSAGGSAGGPIRIKNIENVNPDDGMFTVDVEFPDGKNHTYMIPPDQLEEPGDEIEIPSAGGSAGGSAGG [r7_117_TrROS]” are -2.91 ± 2.26 kJ/mol and under -4.18 kJ/mol.
The like results for “SAGGSAGGSAGGPLPVTVTVLERTHYPEEGLYTVKTEGGTVITLPPELIDKHPPGSTVLLSAGGSAGGSAGG [r11_124_JUSTAS]” were, in that order, -3.08 ± 3.43 kJ/mol and under -4.18 kJ/mol.
On the same counts, the results for “SAGGSAGGSAGGPMRLVRIPLDDGKIKVVPIPPGEAIPFENDNGEIYFMVTDDKIEIMPSAGGSAGGSAGGS [r10_817_TrROS]” are 0.756 ± 1.84 kJ/mol and 0.182 ± 0.628 kJ/mol.
For “SAGGSAGGSAGGPPPGDKIEIIVIKFEPRYDPDGEPKNPRIDSIEVITIPADDPDDLLEASAGGSAGGSAGG [r7_439_TrROS]”, the figures for the “folding stability dG unfold” value in data set [1] and in data set [2] were 3.37 ± 0.331 kJ/mol and 1.46 ± 1.42 kJ/mol, respectively.
On the same counts, the results for “SAGGSAGGSAGGPRVGVVRELPDDSRVALLEIEETLTSPGPDGTPRSRPFRAVFVVPLGSAGGSAGGSAGGS [r10_718_TrMRF]” are 2.89 ± 1.09 kJ/mol and -0.67 ± 0.753 kJ/mol.
On the same counts, the results for “SAGGSAGGSAGGPSSLLDGTPVELSVSPVEVNSVSTVTLPNGSTVPVSKKVKKTVVSVVASAGGSAGGSAGG [r7_90_JUSTAS]” are 2.55 ± 0.314 kJ/mol and 0.961 ± 0.406 kJ/mol.
On to “SAGGSAGGSAGGPVLIRAVFTPPNGPVLELVVPSPEEVVELAKPFDVEVHIEPISPDDPFSAGGSAGGSAGG [r7_456_TrMRF]”, for which the “folding stability dG unfold” value in data set [1] is -4.68 ± 1.88 kJ/mol; in data set [2], under -4.18 kJ/mol.
“SAGGSAGGSAGGRIRLPGWEIEDVKVYETGDKPYYTITYKNPNGKPKKMLMPADDLDDFSAGGSAGGSAGGS [r10_645_TrROS]”: the “folding stability dG unfold” value was -0.905 ± 2.55 kJ/mol in data set [1] and -2.58 ± 2.18 kJ/mol in data set [2].
The like results for “SAGGSAGGSAGGSAVEVDPNGGVTRTRYPGGAVRLETVSPTPDGSLATRTEEVELPGLASAGGSAGGSAGGS [r4_248_JUSTAS]” were, in that order, 3.65 ± 0.0544 kJ/mol and 1.69 ± 0.213 kJ/mol.
On the same counts, the results for “SAGGSAGGSAGGSAVTSDGTEVEPDQLVEEATLTPPDGEPVRLRVYAVPDSDEVVTEAGSAGGSAGGSAGGS [r4_13_TrMRF]” are 2.89 ± 1.09 kJ/mol and under -4.18 kJ/mol.
On the same counts, the results for “SAGGSAGGSAGGSDMEIVPRRIPDGFRLMVARNPEGTYTVQVWNPNGKPKWETIPPDEISAGGSAGGSAGGS [r4_120_TrROS]” are -0.772 ± 0.92 kJ/mol and -2.03 ± 0.879 kJ/mol.
Consider “SAGGSAGGSAGGSDPSMSLETFVIPESTSTVTLTDPSGTLRTLTTGRDPLTLTEVLPPRSAGGSAGGSAGGS [r4_162_JUSTAS]”, for which the “folding stability dG unfold” value in data set [1] is 1.92 ± 0.502 kJ/mol; in data set [2], -0.326 ± 0.711 kJ/mol.
On the same counts, the results for “SAGGSAGGSAGGSDSSVITFDIPVSEYPAKIKLSPETKTMTVVSTSPEGTVKVAIERPGSAGGSAGGSAGGS [r10_352_JUSTAS]” are -1.24 ± 0.586 kJ/mol and -3.72 ± 2.01 kJ/mol.
The like results for “SAGGSAGGSAGGSEEKPIPIKVKIWKPNPGELVEEKEYLIPSNGSAEEIKKAFPNAEISSAGGSAGGSAGGS [r4_187_TrMRF]” were, in that order, 2.88 ± 0.628 kJ/mol and 0.504 ± 1.26 kJ/mol.
Take “SAGGSAGGSAGGSGPPHMRTTNEVTITLDGTVVSGSTPLPESLPPGVETYTTETYLPPLSAGGSAGGSAGGS [r4_436_JUSTAS]”: the “folding stability dG unfold” value in data set [1] is -1.29 ± 0.544 kJ/mol; in data set [2], under -4.18 kJ/mol.
On the same counts, the results for “SAGGSAGGSAGGSGPPLRTEERVEEVTLPNGERLLVETTTLTDPVTGETTVSRSIRLPLSAGGSAGGSAGGS [r4_445_JUSTAS]” are 2.22 ± 0.418 kJ/mol and -1.59 ± 0.795 kJ/mol.
On the same counts, the results for “SAGGSAGGSAGGSKIEVYKEPNKITIVIHPGNKPLVFTATEPIPIETLIKKAREAFPDASAGGSAGGSAGGS [r4_191_TrMRF]” are 2.16 ± 0.502 kJ/mol and -0.19 ± 0.544 kJ/mol.
On the same counts, the results for “SAGGSAGGSAGGSLVSTSPLPSSSTLVTEKGPSPEVTVTVVTVKPGGSRSVTTLPVSESSAGGSAGGSAGGS [r10_140_JUSTAS]” are 1.98 ± 0.238 kJ/mol and -0.597 ± 0.502 kJ/mol.
As for “SAGGSAGGSAGGSMETVEVTEVSFDPSKGTRFVKTTVTRKDEKGNWVEKEEWITEPVLGSAGGSAGGSAGGS [r4_85_JUSTAS]”, the “folding stability dG unfold” value in data set [1] is 1.42 ± 0.247 kJ/mol; in data set [2], -0.337 ± 0.502 kJ/mol.
Regarding “SAGGSAGGSAGGSMKTEEVVYVKTPDAWVRLKKEEAEKLEKETGVKIERESFTLPAGALESAGGSAGGSAGG [r7_185_JUSTAS]”, the “folding stability dG unfold” value in data set [1] was found to be 3.72 ± 0.711 kJ/mol; in data set [2] it was 1.69 ± 1 kJ/mol.
On the same counts, the results for “SAGGSAGGSAGGSMKTITFTDPAEIAAAIEEAEKEGVEEVVLLTPEGKTRVIPKGVPLPSAGGSAGGSAGGS [r4_260_JUSTAS]” are 2.16 ± 0.347 kJ/mol and -0.0354 ± 1.55 kJ/mol.
On the same counts, the results for “SAGGSAGGSAGGSMKTTTLTVKPEELEEVKKKLTPPDKTVTIKSVTKDPKEDLVTLTVESAGGSAGGSAGGS [r10_1030_JUSTAS]” are -2.16 ± 2.47 kJ/mol and -3.86 ± 2.72 kJ/mol.
“SAGGSAGGSAGGSMVYRVVLEPESGERVEFEVTYDEAEELLEKLPPNARLRIEPVPEDASAGGSAGGSAGGS [r4_63_TrMRF]”: the “folding stability dG unfold” value was 1.11 ± 0.544 kJ/mol in data set [1] and -0.31 ± 0.711 kJ/mol in data set [2].
The like results for “SAGGSAGGSAGGSSSMTSEKVTEKTEFDKETGKKYKIITQRISPSSVGNSSLKTEIKLESAGGSAGGSAGGS [r10_535_JUSTAS]” were, in that order, -0.203 ± 1.05 kJ/mol and -3.07 ± 2.55 kJ/mol.
The like results for “SAGGSAGGSAGGSSVVIVADSAEEAKAALKELGIKDAKVVPLKPVKVFTDEQLKELKKKSAGGSAGGSAGGS [r4_101_TrROS_Hall]” were, in that order, 3.95 ± 0.163 kJ/mol and 1.15 ± 1.17 kJ/mol.
On the same counts, the results for “SAGGSAGGSAGGSVEIRDARIELGDNTLRIEISFPDGGTRRIEIEVEPVPPLPPSLLDRSAGGSAGGSAGGS [r4_372_TrMRF]” are 0.454 ± 0.46 kJ/mol and under -4.18 kJ/mol.
As for “SAGGSAGGSAGGSWMRMEAEVRHPNKRDVTIPIPYRSKDGEPDMKERAKEFARELAKDYSAGGSAGGSAGGS [r4_168_TrROS]”, the “folding stability dG unfold” value in data set [1] is -1.32 ± 0.879 kJ/mol; in data set [2], under -4.18 kJ/mol.
On the same counts, the results for “SAGGSAGGSAGGTVKELMKKLPFGAQIEIDEIEHDKGRIEIPIRVENMPPEWREKLRKLSAGGSAGGSAGGS [r10_733_TrROS]” are 0.153 ± 0.628 kJ/mol and -1.28 ± 0.962 kJ/mol.
With “SAGGSAGGSAGGVAEWIQEQGFKVKDIPVPRPPNGNPWVKVEVEHDGGKRTYEIPLDEISAGGSAGGSAGGS [r10_35_TrROS]”, the “folding stability dG unfold” value was determined as 2.04 ± 0.502 kJ/mol in data set [1] and 0.12 ± 0.586 kJ/mol in data set [2].
Take “SAGGSAGGSAGGVRPNPNGQYEVTVTIRNPGGGNKREKTINATPDEIEELQDQGFEIEPSAGGSAGGSAGGS [r10_749_TrROS]”: the “folding stability dG unfold” value in data set [1] is -4.54 ± 1.46 kJ/mol; in data set [2], under -4.18 kJ/mol.
The like results for “SAGGSAGGSAGGVYKVEIEIGDAPRTLVVENAAPEEIRAFLEHPEVRRARVEPLSPEELGSAGGSAGGSAGG [r7_502_TrMRF]” were, in that order, 0.903 ± 0.502 kJ/mol and -0.636 ± 0.46 kJ/mol.
On the same counts, the results for “SAGGSAGGSAGGYDPNDKPVVEVPIELPPNDKKNPDRMKENAEEIANPLQEKGKPDRIVSAGGSAGGSAGGS [r10_723_TrROS]” are 3.8 ± 0.46 kJ/mol and 1.99 ± 1 kJ/mol.
The like results for “SAGGSAGGSAGIKIYAPGFPGMPVEIERDPDEPNVIKIKIKGPDNGEPQERTFPADDLEISAGGSAGGSAGG [r17_341_TrROS]” were, in that order, 2.2 ± 0.31 kJ/mol and -0.708 ± 1.17 kJ/mol.
For “SAGGSAGGSAGIKKQRNPDGQERETIEIRTKNQPIPITFPPDDNADDLANNFGLPADDIRSAGGSAGGSAGG [r11_1039_TrROS]”, the “folding stability dG unfold” value in data set [1] turned out to be 2.85 ± 0.163 kJ/mol; in data set [2], 1.17 ± 0.331 kJ/mol.
Consider “SAGGSAGGSAGKLKVEIEERNGKLVLKVKLELEPEPEPVEVEKKVEVKTETKMSLEELKKSAGGSAGGSAGG [r17_51_TrROS_Hall]”, for which the “folding stability dG unfold” value in data set [1] was 3.98 ± 0.243 kJ/mol; in data set [2], 1.97 ± 0.402 kJ/mol.
